Results on two variants are retold here after IntAct's records for PubMed 19081057.

B1: E3 ubiquitin-protein ligase pellino homolog 2 (Homo sapiens), Q9HAT8 (parent)
chain: MFSPGQEEHCAPNKEPVKYGELVVLGYNGALPNGDRGRRKSRFALYKRPKANGVKPSTVHVISTPQASKAISCKGQHSISYTLSRNQTVVVEYTHDKDTDMFQVGRSTESPIDFVVTDTISGSQNTDEAQITQSTISRFACRIVCDRNEPYTARIFAAGFDSSKNIFLGEKAAKWKNPDGHMDGLTTNGVLVMHPRGGFTEESQPGVWREISVCGDVYTLRETRSAQQRGKLVESETNVLQDGSLIDLCGATLLWRTADGLFHTPTQKHIEALRQEINAARPQCPVGLNTLAFPSINRKEVVEEKQPWAYLSCGHVHGYHNWGHRSDTEANERECPMCRTVGPYVPLWLGCEAGFYVDAGPPTHAFTPCGHVCSEKSAKYWSQIPLPHGTHAFHAACPFCATQLVGEQNCIKLIFQGPID

Variants of B1 are the subject of this test. As to conditions: with irak1_human IRAK1, P51617.
irak1_human IRAK1, P51617, sequence (P51617 whole entry, looked up): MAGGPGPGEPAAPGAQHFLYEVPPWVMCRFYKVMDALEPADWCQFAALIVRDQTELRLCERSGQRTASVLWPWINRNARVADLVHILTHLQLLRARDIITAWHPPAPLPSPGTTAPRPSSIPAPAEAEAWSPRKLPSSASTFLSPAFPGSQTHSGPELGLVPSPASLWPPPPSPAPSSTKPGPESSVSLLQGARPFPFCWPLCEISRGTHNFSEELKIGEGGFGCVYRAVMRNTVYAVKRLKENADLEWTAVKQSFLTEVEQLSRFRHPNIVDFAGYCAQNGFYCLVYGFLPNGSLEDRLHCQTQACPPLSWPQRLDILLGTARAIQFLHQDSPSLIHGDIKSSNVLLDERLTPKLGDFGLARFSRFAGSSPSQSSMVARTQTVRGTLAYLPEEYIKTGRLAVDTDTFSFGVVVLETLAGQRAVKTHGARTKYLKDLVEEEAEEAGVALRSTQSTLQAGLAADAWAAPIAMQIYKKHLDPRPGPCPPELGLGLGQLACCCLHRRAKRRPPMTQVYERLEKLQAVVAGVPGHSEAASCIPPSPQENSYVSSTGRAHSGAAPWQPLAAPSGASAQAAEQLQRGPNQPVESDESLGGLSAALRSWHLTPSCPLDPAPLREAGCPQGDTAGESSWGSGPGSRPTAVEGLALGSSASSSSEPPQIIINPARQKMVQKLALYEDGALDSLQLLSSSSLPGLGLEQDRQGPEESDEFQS
As for T187A;N188A, the “effect of a mutation on the interaction” value is on record as “disrupting interaction”.
For R106A, the “effect of a mutation on the interaction” value is reported as “disrupting interaction”.
